Source: the supplement of paper PMC9170038

Legend:
MS2 coat protein [1] = assay: apparent KD of MS2 coat protein, switch ON state; designed switch direction (-1 OFF switch, 1 ON switch): 1; higher = weaker reporter binding; conditions: FMN input: 0 or 200 uM; Eterna round: R93 (includes R88 designs)
Outline: (§1)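 Normalised binding curves from single clusters were fitted, and the median fit for each design is given as apparent KD. The clusters held designed RNA switches transcribed on-chip from Illumina sequencing clusters. These were titrated with SNAP-549-labelled MS2 coat protein (twofold steps from 0.7 or 1.5 nM to 3 µM, 0.8–1.5 h to 10–20 min per step) in 100 mM Tris-HCl pH 7.5, 80 mM KCl, 4 mM MgCl2, without or with constant ligand.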

MS2 coat protein [2] = assay: apparent KD of MS2 coat protein, switch OFF state (with FMN for OFF switches, without FMN for ON switches); designed switch direction (-1 OFF switch, 1 ON switch): 1; higher = weaker reporter binding; conditions: FMN input: 0 or 200 uM; Eterna round: R93 (includes R88 designs)
Outline: as §1

MS2 coat protein [3] = assay: apparent KD of MS2 coat protein; designed switch direction (-1 OFF switch, 1 ON switch): 1; higher = weaker reporter binding; conditions: Eterna round: R98
Description: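 RNA-MaP: designed FMN/MS2 RNA switches (84 nt design region) are transcribed on-chip within common flanks and titrated with SNAP-549-labelled MS2 coat protein (about 1-3000 nM) in 100 mM Tris pH 7.5, 80 mM KCl, 4 mM MgCl2, without or with 200 uM FMN. Median apparent KD per design; activation ratio = KD,OFF / KD,ON.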

Sequence	apparent KD of MS2 coat protein (MS2 coat protein [1]) [nM]	apparent KD of MS2 coat protein (MS2 coat protein [2]) [nM]	apparent KD of MS2 coat protein (MS2 coat protein [3]; input ligand: FMN 200 uM) [nM]	apparent KD of MS2 coat protein (MS2 coat protein [3]; input ligand: none) [nM]
AUAAAAGAAAGGCAGGAUAUCCAAAGAAAAACAUGAGGAUCACCCAUGUAAAGAAAGAAAAAGUGGGAGAAGGGCCAAAAGAAUA [73%, More Fisker Same State 2, D3, 3]	25.3	27.6		
AGGAAACAUGAGGAUCACCCAUGUAAAAAUAUGGAAGGAUAUGGAAACACGAAAGUGAAACCAGAAGGUCUGAAAA [77%, Mat - Mod of Eli, 20]	16.6	23.3		
UUUAUUUAUUGAGGAUAUGCACAGGAUCACCGUGUAGAAGGCAUCAGGGAGAAGGUGCAGAGGAUCACCCUGUAAGGAUAUCAC [pwkr2 ssNG1 DX.2]			144	381
AAAACACAUGAGGAUCACCCAUGUAAAAACAUGAGAGGAUAUGCUUGGAAAACAUGCUAUGCAGAAGGCUCAAGUG [SS1 - 9]	18.2	30.1		
CGGAUCGCAUGAGGAUAUGGUCAGCUUUGCUGACCAGAAGGCAUGUCAAUAGACAUGAGGAUCACCCAUGUAGUUAAGAUCCGA [Mat - Same State NG 1 - JL Mod - D17]			45.5	644
AAAAAAAGAUCACAGGAUAUACGAAAAAAAACAUGAGGAUCACCCAUGUAAAAAAAAAAAAAAAAGUAGAAGGGUGAUCCAAAAAA	28.5	11		
AUAACACAUGAGGAUCACCCAUGUAGAUACCCGUCAGGAUAUGCAAAGAAAAUAAACAAAGCAGAAGGGACAAUAA [SS 1 Tesla 2]	21.2	30.4		
AAAAUAAAAUAAAUUAACAUGAGGAUCACCCAUGUCGCUAGACAGGAUAUAUAAAAUAAAAUAAAGUAGAAGGGUCAAAUAAAA [LRO001_SS NG 3]			88.2	114
CAAAACAAAACAUAGGAUAUCAAAACAAAAACAUGAGGAUCACCCAUGUGGAAACAUGAGAAGGAUGAGAAGGAAAACAAAACAA [Meechl SS2 R2 m7]	25	49.6		
AUAAAACAUGAGGAUCACCCAUGUAGAAAUAUGGGAGGAUAUACAAGGACGAAAGUCAAGGUAGAAGGCCUAAAAG [Mat - Same State 1 - Meechl mod - D119]	25	126		
CGGAAAGAGAGAGAGGAUAUCCAAAGGAAAACAUGAGGAUCACCCAUGUAGAAGGUAGGAAAUUGGGAGAAGGCUCAAGAGAGAG [salish99-ss2-132]	25.3	26.7		
GUGGACGUAGGAUAGGAUAUAUGAAUAAUUACAUGAGGAUCACCCAUGUCCAUUUAUAUGGGAACAUAGAAGGGUUGUGGUUAAC [Mat - Same state - Malcolm Mod - D132]	364	602		
AAGAAACAUGAGGAUCACCCAUGUGAAAGAAACACAGGAUAUGCGAAAAGAAACAAAGAAGCAGAAGGGUGAAGAA [Mat - Same State 1 - Tesla mod - 58]	22.6	39.2		
GAGAAGGAGAGAGAGGAUAUCCAAAGGAAAACAUGAGGAUCACCCAUGUAAAAGGUAGGAAAUUGGGAGAAGGCUCAAGAGAGAG [salish99-ss2-108(!)]	33	34.3		
AGGAAACAUGAGGAUCACCCAUGUAAAAAUAUCACAGGAUAUGGAAACACGAAAGUGAAACCAGAAGGGUGAAAAG [77%, Mat - Mod of Eli, 13]	13.2	32		
UGGAGGAAGAGAGAGGAUAUCCAAAGGAAAACAUGAGGAUCACCCAUGUAAAAGGUAGGAAAUUGGGAGAAGGCUCAAGAGAGAG [salish99-ss2-059]	37.2	63.7		
AGAAAACAUGAGGAUCACCCAUGUCAGAAAUGGCAAGGAUAUAGAAAAGAAAAAGAAAAACUAGAAGGUGCAAAAG [Meechl SS1 R2 m2]	187	153		
AGAAAUAAAAGAGAGGAUAUCCAAAAUAAAACAUGAGGAUCACCCAUGUCUACGAAAGUAGGAUGGGAGAAGGCUCAAAAUAAAG [80% More Helter Skelter 2 + Hairpin]	120	14.8		
AACAAUCUAUCUGAGGAUAUGUGUCGAAAGACAUGAGGAUCACCCAUGUGAAAACAUGAAAAAACACAGAAGGCAGAUAGAUUGA [SS2: 1147]	33.6	70.6		
AAGGAACAUGAGGAUCACCCAUGUAAAAAAUAUGGAGGAUAUACUAGAAGAAACAAAAUAGUAGAAGGCCAAAAAA [75%, Ex sub1, 30]	16.5	20.6		
